In the DeepSol protein solubility set:

test: soluble on expression in E. coli; label from the status in PepcDB or PDB records

Sequence	soluble on expression in E. coli
MSLCDYLERSAKKFPEKVAVQGVRLGHIEAITYAELNTFSDRFSEFLRAQGVTRGEFIPFFMFKEIDSIKSIFSILKADCAYVPLDCKSPEGRLLSIIKSCKAKFIIVNERSESLAERVFSAIPTLKIINISEFVSDTAFVFSASLNISVDLAYVLFTSGSTGTPKGVMISHQAIIDYIGWCTETYNITAIDHVSNHAPLYFDNSTFDIYTSMAAGATLHLVPEEFNVMLPRLIDWIEDNRISIFFCVPSILTLMLQTGRLRTERFVELKHLICAGEVLPTTTAKKILGLFPHLQLTNMYGPTEITVDCTYHVIREADVTSSTSIPIGKPRRNMQLMVLTDDGAVTNERGAIGELMVRGSSVSYGYLDNYAKTQEAFVQNPAHSLYPDMVYKTGDRVTIGEEGLYYYCGRLDNQIKHLGYRIELGEIEANALLLDTVLEAVAVYRSSTSMFESAICMAVKTTVPTDVRTLRAALTSVLPPYMIPGHFVFLDSDFPRTPNGKYDRASILGLFVEGHHHHHH	not soluble
MSELRKLELERKKQKLAELKSQRKREEDARVQNLLRSTNENGTTQNGTSRQTLSSNEVEDILRQVGISTEPTVREESPAPPPGSHSDNHVDPSASHPRISNLLSVDLEFSSVQTACTDNKDSAIYSKGTQTDDERISVGEFSLGSQEFDYDDDMIMPMDHGQFRGRAHSHDQDSPLPYNEEIAKLLGQTKQGDKGLTRQETEEKKTQTVQIVPPLSDEEKYRLTLDPEFLDSFNRSCKVISRALNEEIDICINYTKDPYEKAIASDDLLHLAQVYQDETWTAKRLVTGMAFSEHYPDLLAVSYGPCDIPNEPPGVIVVWNTKSKRMTAEFIVYCQSEIQSVAFARFHAHLLLAGCESGQICVWDNRLTSRKLPINRSPLTTQAHTYTVSCLAVVGTKNAHNFVSLSRDGRICSWNVDNLTQPVDGKELMTKEGKAASATRMSFPIGEMQTFVVGTDTGEILAASRNGADPAVIKTDVCYKGHSGTLTGIEFHRASGVVDFSHLFISSSHDWTVKLWSTKDANLKFSFESHPDLVLDVAWSPVHPAVFASIDADGNIFVWNLNEDVEGPVARLRAGAEGESVYMNRLIWSPDGKHVFVGDDEGRVHMYDVRESLYVLKSEEWNRFARVLSDMKQSNEEAENYNM	not soluble
MEPPKLLGVVLTTALLFHIALTAKQAVVSRKSKLCGNVECEEVLFKARVKRVMGINNDPSFLNLAENAIISVVAVKFSDRPDIMEGKLNGEGSNGFFYAGAIDIMPFAEFLRTAITDKKEMLMISQNPADIGDKRIVGFLHSETDLVRDFNAKNAQAAAENGLPAPEPIPIPEPAHTGHGHSHGGHGHSHGGHGHSHGHPAPTPAPTPAPKPIEEAPKPAEEPVKPADLEMDAEIERLIKEEEERMKNVAEQPPLVLQSLPETPEAQKLPEEPLEPVTPEPIPEAPVPIAQYIQEPTTTPAPLEAPAPVENAPNLPTPTFSVDDLMAQAARDALNSNSIVPDAPKVEEPEPAPTPAPAPAEDPVVTPAPEELTGVCYKDDCQGLQTPPPPAPPPPAPAVPEEAQAPTPAPEEAPEAQIPAETAQIPPENAVPEAPEEPAPTTTPPPISAGEAEFLKWEEARQKREAVAAAPYEDAQAHQFVASPPPHVSSGLIELIRSSLGLGNITDSSVLLVVNLTFVAASFLVYIIIRSLSSGGESDILDRQAHFDLMNKHKQLQLQLNAKITEIQNLQANGAAAQRPEQPNYEPELLALRQQLAHLQSELQTAHAQRQEFEIHYHQIRELAEQKDHQIAQLTEQANDYQERLEKSQSELQELARHVDSARAELMDSQTSDYGRQQELMEKQAELEQIYVKIDNLTAENRDLTDKIAQLQVSDSLELEELEELRNKNLELQEQVKQLKEELEKEKSVAGSGNSGGWSDIDDNEVVEAVQPIETTPISSENSENLKKFEAEIAELKASLEKTEKELTKYRNLYNEKLTAISDKENRSQIEMEHKLKNAESDLQEAKRRAEEIGAEKKELSDRLNEMLKNLNQSMQKSAENDKMLTQLREEAFAKEKQLLEHDSVLRKKDDKIRELDAEFKRVKMEYVKLETKSFHDVRKLNMDVEELKTQLSMAGGVTSSRSIPDRLVSPLQEPIWDEPEPALQRVVLPLDGYSSMRRRSTRRSQLPFGAESPSDQEKKQAAPSHRRRSRSHGRQPPSFHDPYSMNPYLPGSSDSSFMSTSQPQFLPLNRQHSRSGHLMSNSANGPYSSGGSNGGRSPPPEMPLLSAIPPPGARKPLGKRPDSAHHLGK	not soluble
MHHHHHHSSGRENLYFQGESTRRLILVGRTGAGKSATGNSILGQRRFFSRLGATSVTRACTTGSRRWDKCHVEVVDTPDIFSSQVSKTDPGCEERGHCYLLSAPGPHALLLVTQLGRFTAQDQQAVRQVRDMFGEDVLKWMVIVFTRKEDLAGGSLHDYVSNTENRALRELVAECGGRVCAFDNRATGREQEAQVEQLLGMVEGLVLEHKGAHYSNEVYELAQVLRWAGPEERLRRVAERVAARVQR	soluble
MNKIKILSITLEKRIISKNENDHSHQVIGQETEMTSKLEIRHKQRQDEIINAARRCFRRCGFHAASMSQIASEAQLSVGQIYRYFANKDAIIEEMVRRIIDFRIAQMDIDARTDHFPEVLALRKSLNEDDDALMLEVAAEATRNPRVMAMLEEADARMFANGCAHMKRMHPHLSDEHIRCCVEVFATMMEGTVYRRLTPQKSDPQHLQEIYQDIVSMLINK	not soluble
MNKALSVENLGFYYQAENFLFQQLNFDLNKGDILAVLGQNGCGKSTLLDLLLGIHRPIQGKIEVYQSIGFVPQFFSSPFAYSVLDIVLMGRSTHINTFAKPKSHDYQVAMQALDYLNLTHLAKREFTSLSGGQRQLILIARAIASECKLILLDEPTSALDLANQDIVLSLLIDLAQSQNMTVVFTTHQPNQVVAIANKTLLLNKQNFKFGETRNILTSENLTALFHLPMFEQQAQYKESFFTHFVPLYKTLLK	soluble
MGHHHHHHSHMDEGVKEKFIGAVLGAAVGDALGKSVEDITEEEVFEFYGDRIRDFVTPHPSSPAYGQLPEETSDETTIFRLLLESLVEKKALDVRDFLNRLMEWYDREEMHRYPDPMLLTAIDLLSRGINPSTHGLTSFSVEGILRSVALGLYHYYNPELAAEGSKVVSLLTHRSDVISDASAILGALIAHLVRGDFYLEDFREKLRLIETLKDYAKEEKHKKILDRVAELLMESADLETAINTLGNGTFAFEAFPLALYIFLSNVENPEEALFQAVNSYGEFGGDTDAIGFLVGAMLGAYYGEEAIPYHLRENVENSQKLRELAERLYEVVEKQVGFSQ	soluble
MDSRTKGKTVMEVGGDGVAVITLINPPVNSLSFDVLYNLKSNYEEALSRNDVKAIVITGAKGRFSGGFDISGFGEMQKGNVKEPKAGYISIDIITDLLEAARKPSVAAIDGLALGGGLELAMACHARISAPAAQLGLPELQLGVIPGFGGTQRLPRLVGLTKALEMILTSKPVKAEEGHSLGLIDAVVPPAELVTTARRWALDIVGRRKPWVSSVSKTDKLPPLGEAREILTFAKAQTLKRAPNMKHPLMCLDAIEVGIVSGPRAGLEKEAEVASQVVKLDTTKGLIHVFFSQRGTAKVPGVTDRGLVPRKIKKVAIIGGGLMGSGIATALILSNYPVILKEVNEKFLEAGIGRVKANLQSRVRKGSMSQEKFEKTMSLLKGSLDYESFRDVDMVIEAVIENISLKQQIFADLEKYCPQHCILASNTSTIDLNKIGERTKSQDRIVGAHFFSPAHIMPLLEIVRTNHTSAQVIVDLLDVGKKIKKTPVVVGNCTGFAVNRMFFPYTQAAMFLVECGADPYLIDRAISKFGMPMGPFRLCDLVGFGVAIATATQFIENFSERTYKSMIIPLMQEDKRAGEATRKGFYLYDDKRKAKPDPELKKYIEKARSISGVKLDPKLANLSEKDIIEMTFFPVVNEACRVFAEGIAVKAADLDIAGIMGMGFPPYRGGIMFWADSIGSKYIYSRLDEWSKAYGEFFKPCAFLAERGSKGVLLSAPVKQASSRL	soluble
MSLSQHIRKLDSDVSERLKSQACTVSLASAVREIVQNSVDAHATTIDVMIDLPNLSFAVYDDGIGLTRSDLNILATQNYTSKIRKMNDLVTMKTYGYRGDALYSISNVSNLFVCSKKKDYNSAWMRKFPSKSVMLSENTILPIDPFWKICPWSRTKSGTVVIVEDMLYNLPVRRRILKEEPPFKTFNTIKADMLQILVMHPMISLNVQYTDKLRINTEVLFRSKNITEGLTKHQQMSQVLRNVFGAEGHHHHHH	soluble
MMINIQEDKLVSAHDAEEILRFFNCHDSALQQEATTLLTQEAHLLDIQAYRAWLEHCVGSEVQYQVISRELRAASERRYKLNEAMNVYNENFQQLKVRVEHQLDPQNWGNSPKLRFTRFITNVQAAMDVNDKELLHIRSNVILHRARRGNQVDVFYAAREDKWKRGEGGVRKLVQRFVDYPERILQTHNLMVFL	soluble
MGSDKIHHHHHHMKLLCSLASPYARCVRSLIRYLGIEDIEEVLVNPMENTAQLLDVNPLGQIPCLITNDGVPIFDSEVIMRYLDTELGAQEMFGGQPYNWVLQCQYSMIKGLIDSAVKLRQEQMREEEGVRSAFWTSRFEQALLRGLMQMEHQSVITQTTIQAPQLTLICLLDYVDFRHPELDWRKVAPATAIWFSEMRDLPAFVETRPQ	not soluble
MAHHHHHHMEPNADEPKKTSSVRQLLRQQRELQEMRKFGLAPLAVDTETHQEISPNIPEFISRAPWYYGATGPTLVHQRKQGDSATEVSDEVLDEKVDRIVVKGQASRFTAGACKNCGSRTHKTSECFQAKKKVGSVYTNRVTGSDIETHQEAKTYSQKRDRFVGEVGIDLMRGVRQDQQDDNVDVAAPATARHRPEDVFGSRTAQHGGVEVKELPKYLHNLDQQDGLFFDPKTGSMRANPNSGDSTKAFRGDLERYRTGDYYNYVESQYRFLTGQSRSFVDFEFDDAMRRAREQQQEPQQQEQNSTRGPVTKVLTETPQDVLLRSLYGASQPKFDSDVLPSFTTESKTSAPSSSPAPPVDALATTATATVTAHSSVQAASLSWVTTRNGHAAVYGSYFDPIHFRWGYACCKRMGKDTTGCSATHA	soluble
MGHHHHHHSHMTATVENLTFQKDTLGNAVDKNRRHGSTEPLVLAWSSQFRRLTWGCALDALHRSPCVAASQHGVTHLIRSSRTPHSTRCRKEDAQPGHHGNGAASVTAQARGQR	not soluble
SPFDANKLYCSEVLAILLQDNDENRELLGELDGIDVLLQQLSVFKRHNPSTAEEQEMMENLFDSLCSCLMLSSNRERFLKGEGLQLMNLMLREKKISRSSALKVLDHAMIGPEGTDNCHKFVDILGLRTIFPLFMKSPRKIKKVGTTEKEHEEHVCSILASLLRNLRGQQRTRLLNKFTENDSEKVDRLMELHFKYLGAMQVADKKIEGEKHDMVRRGEIIDNDTEEEFYLRRLDAGLFVLQHICYIMAEICNANVPQIRQRVHQILNMRGSSIKIVRHIIKEYAENIGDGRSPEFRENEQKRILGLLENF	not soluble
MAQREWVEKDFYQELGVSSDASPEEIKRAYRKLARDLHPDANPGNPAAGERFKAVSEAHNVLSDPAKRKEYDETRRLFAGGGFGGRRFDSGFGGGFGGFGVGGDGAEFNLNDLFDAASRTGGTTIGDLFGGLFGRGGSARPSRPRRGNDLETETELDFVEAAKGVAMPLRLTSPAPCTNCHGSGARPGTSPKVCPTCNGSGVINRNQGAFGFSEPCTDCRGSGSIIEHPCEECKGTGVTTRTRTINVRIPPGVEDGQRIRLAGQGEAGLRGAPSGDLYVTVHVRPDKIFGRDGDDLTVTVPVSFTELALGSTLSVPTLDGTVGVRVPKGTADGRILRVRGRGVPKRSGGSGDLLVTVKVAVPPNLAGAAQEALEAYAAAERSSGFNPRAGWAGNR	soluble
MGGWSNFKFLFLSPGGELYGVLNDKIYKGTPPTHDNDNWLGRAKKIGDGGWNQFQFLFFDPNGYLYAVSKDKLYKAPPPQSDTDNWIARATEIGSGG	soluble
MGSDKIHHHHHHQNTPIGENIELAGENPEELKVIYINKDVSTHFIAMEDIKYVDISVNDIVGDIPTGNSLRIKPTKEGASGVITIVTERFFVQYMLVYSSDLAKAYTRFNIPYADLRSYMNPEVNLTKAQMYDYAHRMFISKNKFYDVSSTSNLMKIVLNNIYTLDKYFFIDISMINKTKIRYDIDQIRFKIEDKKQTKATNFQSIEILPLMQVNKNLVFKKNYRNIFVFEKFTFPDEKVLTIEISEKQISGRTITLRIDYADILHADAFTE	not soluble
